Results reported in patent US20210070855A1 (NANJING LEGEND BIOTECH, published 2021).
Like-named read-outs stand apart in the source and are kept apart here. Blank lines part the entries; values can stand above or below the binder they belong to.

How the values were obtained:
human CD47 on cells [1] = biological target: T1, human CD47 on cells (human, UniProt Q08722 19-323); experiment: flow cytometry on red blood cells
T1 construct: also called CHO-K1/huCD47; human CD47 over-expressed in CHO-K1 cells

human CD47 on cells [2] = biological target: T1, human CD47 on cells; experiment: flow cytometry on CHO-K1/huCD47 cells; unit taken from the axis
Experimental: Binding to cell-expressed human CD47 was evaluated on human CD47 over-expressing CHO cells (GenScript, Cat #M00581). Anti-CD47 antibody dilution series was prepared in FACS buffer. CHO-K1/human CD47 cells were transferred to a 96-well U-bottom plate and anti-CD47 antibody dilution was added. […] The cells were then washed twice with wash buffer. Cells were analyzed for binding by FACSCalibur (BD Bioscience, San Jose, Calif.) and Flowjo software.

[3] = biological target: T2, cynomolgus monkey CD47 on CHO-K1 cells (cynomolgus monkey, UniProt A0A5F8AK49 19-323 (rhesus entry)); experiment: flow cytometry on CHO-K1/cynoCD47 cells; unit taken from the axis
T2 construct: whole, on cells; also called CHO-K1/cyno CD47; CHO-K1/cynoCD47
Experimental: (§1) Briefly, binding to cell-expressed cyno CD47 was evaluated on cynomolgus monkey CD47 over-expressing CHO cells. Anti-CD47 antibody dilution series was prepared in FACS buffer. CHO-K1/cynomolgus monkey CD47 cell were transferred to a 96-well U-bottom plate and add CD47 antibody dilution. After 30 minutes incubation at 4° C., cells were washed twice with FACS buffer. […] The cells were washed twice with wash buffer, and then analyzed for binding by using FACSCalibur (BD Bioscience, San Jose, Calif.) and Flowjo software.

human CD47 on cells [4] = biological target: T1, human CD47 on cells; experiment: flow cytometry, blocking of human SIRPα binding to CHO-K1/huCD47 cells; the box on the sheet is labelled EC50; unit taken from the axis
human CD47 on cells [5] = biological target: T1, human CD47 on cells; experiment: flow cytometry on red blood cells; unit taken from the axis
[6] = biological target: T2, cynomolgus monkey CD47 on CHO-K1 cells; experiment: flow cytometry on CHO-K1/cyno CD47 cells; unit taken from the axis
Experimental: as §1

[7] = biological target: T2, cynomolgus monkey CD47 on CHO-K1 cells; experiment: as above; remark: listed apart in the source
Experimental: as §1

human CD47 on cells [8] = biological target: T1, human CD47 on cells; experiment: flow cytometry on CHO-K1/huCD47 cells (FL2-H channel); unit taken from the axis
human CD47 on cells [9] = biological target: T1, human CD47 on cells; experiment: flow cytometry, blocking of human SIRPα binding to CHO-K1/huCD47 cells; B6H12 is the positive control
human CD47 on cells [10] = biological target: T1, human CD47 on cells; experiment: flow cytometry on human red blood cells
human CD47 on cells [11] = biological target: T1, human CD47 on cells; experiment: flow cytometry, blocking of human SIRPα binding to CHO-K1/huCD47 cells; the box on the sheet is labelled EC50; unit taken from the axis; remark: listed apart in the source
Experimental: After 30 minutes incubation at 4° C., cells were washed twice with FACS buffer.

human CD47-His protein = biological target: T3, human CD47-His protein (human, UniProt Q08722 19-139, limits assumed); experiment: SPR (Biacore T200), antibody captured, human CD47-His as analyte, 1:1 model
T3 construct: It includes the signal peptide and the membrane-spanning region, which a soluble protein would lack; not shown: His tag

human CD47 on cells [12] = biological target: T1, human CD47 on cells; experiment: flow cytometry, blocking of human SIRPα binding to CHO-K1/huCD47 cells

- EC50 (read off the curve) (human CD47 on cells [10]): ~0.01 µg/mL
- EC50 [6]: 0.931 nM
- EC50 [7]: 0.931 nM
- IC50 (human CD47 on cells [11]): 1.08 nM
B3: 107F11F10 (antibody, V domains shown)
VH: EVQLQQSGAEFVKPGASVKLSCTASGFNIEDTYMHWVKQRPEQGLEWIGMIDPANGKTKYGPRFQDKATVTADTSSNTANLQLSSLTSEDTAVYYCADGIGYYVGAMDYWGQGTSVTVSS
VL: DIQMNQSPSSLSASLGDTITITCHASQNINVWLSWYQQKPGNIPKLLIYKASNLHTGVPSRFSGSGSGTGFTLTISSLQPEDIATYYCQQGHSYPYTFGGGTKLEIK
notes: purified murine anti-CD47 hybridoma antibody; same VH and VL as 107F11B11 and 107F11C4

- EC50 (human CD47 on cells [5]): 3.18 nM
- EC50 (human CD47 on cells [2]): 0.586 nM
- EC50 [3]: 0.477 nM
- Kd (human CD47-His protein): 1.5 nM
- koff (human CD47-His protein): 0.00046 s⁻¹
- kon (human CD47-His protein): 310000 M⁻¹ s⁻¹
- IC50 (read off the curve) (human CD47 on cells [12]): ~1 nM
B4: 108VH4.M4_VL1.M1-hIgG4PE (antibody)
heavy: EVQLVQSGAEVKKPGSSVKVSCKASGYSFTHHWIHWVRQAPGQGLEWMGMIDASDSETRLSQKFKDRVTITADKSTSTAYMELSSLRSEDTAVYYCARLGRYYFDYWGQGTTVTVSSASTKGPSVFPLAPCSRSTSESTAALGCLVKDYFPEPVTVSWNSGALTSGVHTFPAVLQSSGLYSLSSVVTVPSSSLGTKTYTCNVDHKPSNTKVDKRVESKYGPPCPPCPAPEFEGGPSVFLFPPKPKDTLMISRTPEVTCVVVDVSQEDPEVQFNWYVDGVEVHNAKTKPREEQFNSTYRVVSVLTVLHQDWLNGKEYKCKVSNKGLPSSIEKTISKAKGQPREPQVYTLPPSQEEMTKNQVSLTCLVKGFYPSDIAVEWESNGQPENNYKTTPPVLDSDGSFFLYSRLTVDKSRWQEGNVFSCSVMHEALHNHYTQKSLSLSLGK
light: EIVLTQSPATLSLSPGERATLSCRASENVGTYISWYQQKPGQAPRLLIYGASNRYTGIPARFSGSGSGTDFTLTISSLEPEDFAVYYCGESYGHLYTFGGGTKVEIKRTVAAPSVFIFPPSDEQLKSGTASVVCLLNNFYPREAKVQWKVDNALQSGNSQESVTEQDSKDSTYSLSSTLTLSKADYEKHKVYACEVTHQGLSSPVTKSFNRGEC
notes: also called 108VH4.M4_VL1.M1-hlgG4PE; 108VH4.M4_VL1.M1-hIgG4PE-Ka

Second part, the binder before the results:

B1: 108C10A6_Chimeric hIgG1 (antibody, V domains shown)
VH: QMQLQQSGPQLVRPGASVKISCKTSGYSFTHHWIHWMKQRPGQGLEWIGMIDPSDSETRLSQKFKDKATLTVDASSSTAYMQLNSPTSEDSALYFCARLGRYYFDYWGQGTTLTVSS
VL: NIVMTQSPRSMSMSVGERVTLSCKASENVGTYISWYQQKPDQSPKLLIYGASNRYTGVPDRFTGSGSGTDFTLTISTVQAEDLADYHCGESYGHLYTFGGGTKLEIKR
notes: also called CD47-108C10A6_Chimeric huIgG1; chimeric 108C10A6
- EC50 (read off the curve) (human CD47 on cells [1]): ~3 nM
- EC50 (human CD47 on cells [2]): 0.551 nM
- EC50 [3]: 0.491 nM
- IC50 (human CD47 on cells [4]): 1.42 nM

B2: B6H12 (antibody, V domains shown)
VH: EVQLVESGGDLVKPGGSLKLSCAASGFTFSGYGMSWVRQTPDKRLEWVATITSGGTYTYYPDSVKGRFTISRDNAKNTLYLQIDSLKSEDTAIYFCARSLAGNAMDYWGQGTSVTVSS
VL: DIVMTQSPATLSVTPGDRVSLSCRASQTISDYLHWYQQKSHESPRLLIKFASQSISGIPSRFSGSGSGSDFTLSINSVEPEDVGVYYCQNGHGFPRTFGGGTKLEIK
- EC50 (human CD47 on cells [5]): 7.74 nM
- EC50 [6]: 13.3 nM
- EC50 [7]: 13.3 nM
- EC50 (human CD47 on cells [8]): 2.31 nM
- IC50 (read off the curve) (human CD47 on cells [9]): ~6 nM
- IC50 (human CD47 on cells [4]): 5.4 nM
